Experimental data from patent publication US20250368686A1 (OKINAWA INSTITUTE OF SCIENCE AND TECHNOLOGY SCHOOL, published 2025).
Values belong to the binder of their own block, whether it stands above or below them.

Assays:
[1] = target: the molecule itself; assay: calculated from the equilibrium constants; after DAMGO
[2] = target: the molecule itself; assay: calculated from the equilibrium constants; no agonist
[3] = target: the molecule itself; assay: inverse of the homodimer lifetime; no agonist
[4] = target: the molecule itself; assay: inverse of the homodimer lifetime; after DAMGO
[5] = target: the molecule itself; assay: calculated from KD (FIG. 2-4f)
[6] = target: the molecule itself; assay: cell-based or functional assay
[7] = target: T1, µ-type opioid receptor (MOR), rat, wild type, fluorescently tagged, expressed in the PM of CHO-K1 cells … (rat, UniProt P33535 1-398); assay: colocalisation index, two-colour single-molecule imaging in CHO-K1 cells
T1 construct: whole, on cells; also called WT-MOR; MOR-Halo; not shown: Halo tag

[8] = target: T1, µ-type opioid receptor (MOR), rat, wild …; assay: dependence of the DOR-MOR colocalisation index on the concentration of the soluble peptide (competition on cells)
[9] = target: the molecule itself; assay: inverse of the homodimer lifetime; after U-50488
[10] = target: the molecule itself; assay: calculated from the equilibrium constants; after U-50488
[11] = target: the molecule itself; assay: calculated from the equilibrium constants; after SNC-80
[12] = target: the molecule itself; assay: inverse of the homodimer lifetime; after SNC-80
[13] = target: the molecule itself; assay: colocalization durations; SNC-80 and FAM-Dpep-TAT present

B1: SNAPf-MOR: rat MOR with the SNAPf tag protein at its N-terminus, expressed in the PM of CHO-K1 cells (Example 2) (receptor, not shown: small tags and cut ends)
chain: SGGGSGGSGGGSGGSGGGSGGMDSSTGPGNTSDCSDPLAQASCSPAPGSWLNLSHVDGNQSDPCGLNRTGLGGNDSLCPQTGSPSMVTAITIMALYSIVCVVGLFGNFLVMYVIVRYTKMKTATNIYIFNLALADALATSTLPFQSVNYLMGTWPFGTILCKIVISIDYYNMFTSIFTLCTMSVDRYIAVCHPVKALDFRTPRNAKIVNVCNWILSSAIGLPVMFMATTKYRQGSIDCTLTFSHPTWYWENLLKICVFIFAFIMPVLIITVCYGLMILRLKSVRMLSGSKEKDRNLRRITRMVLVVVAVFIVCWTPIHIYVIIKALITIPETTFQTVSWHFCIALGYTNSCLNPVLYAFLDENFKRCFREFCIPTSSTIEQQNSTRVRQNTREHPSTANTVDRTNHQLENLEAETAPLP
modifications: SNAPf tag covalently labelled with SNAP-Surface 549 or SNAP-CF660R
notes: whole, on cells; Homodimer partner is the same molecule labelled in the other colour; also called WT MOR
D/M ratio (protomers in dimers vs monomers) at 0.3 copies/µm^2 [1]: 0.06
D/M ratio (protomers in dimers vs monomers) at 1 copies/µm^2 [1]: 0.17
D/M ratio (protomers in dimers vs monomers) at 3 copies/µm^2 [1]: 0.43
D/M ratio (protomers in dimers vs monomers) at 10 copies/µm^2 [1]: 1.02
D/M ratio (protomers in dimers vs monomers) at 30 copies/µm^2 [1]: 2.03
D/M ratio (protomers in dimers vs monomers) at 0.3 copies/µm^2 [2]: 0.08
D/M ratio (protomers in dimers vs monomers) at 1 copies/µm^2 [2]: 0.22
D/M ratio (protomers in dimers vs monomers) at 3 copies/µm^2 [2]: 0.54
D/M ratio (protomers in dimers vs monomers) at 10 copies/µm^2 [2]: 1.23
D/M ratio (protomers in dimers vs monomers) at 30 copies/µm^2 [2]: 2.41
koff [3]: 8.47 s⁻¹
koff [4]: 5.35 s⁻¹
% of copies existing as dimers at ˜1 copy/µm^2, before agonist [5]: 18%
Ca^2+ (FMax-Fb)/Fb; + Agonist + FAM-pep-TAT [6]: 2.78 (FMax-Fb)/Fb

binding result [7]: no binding
B2: κ-type opioid receptor (KOR), rat, wild type, fluorescently tagged, expressed in the PM of CHO-K1 cells (Example 1) (receptor, UniProt P34975 1-380, looked up)
chain: MESPIQIFRGEPGPTCAPSACLLPNSSSWFPNWAESDSNGSVGSEDQQLEPAHISPAIPVIITAVYSVVFVVGLVGNSLVMFVIIRYTKMKTATNIYIFNLALADALVTTTMPFQSAVYLMNSWPFGDVLCKIVISIDYYNMFTSIFTLTMMSVDRYIAVCHPVKALDFRTPLKAKIINICIWLLASSVGISAIVLGGTKVREDVDVIECSLQFPDDEYSWWDLFMKICVFVFAFVIPVLIIIVCYTLMILRLKSVRLLSGSREKDRNLRRITKLVLVVVAVFIICWTPIHIFILVEALGSTSHSTAVLSSYYFCIALGYTNSSLNPVLYAFLDENFKRCFRDFCFPIKMRMERQSTNRVRNTVQDPASMRDVGGMNKPV
notes: whole, on cells; also called WT-KOR; κ-OPR; not shown: fluorescent tag protein

Kd [8]: < 100 nM
B3: Dpep(20-42)DM, soluble peptide with the N-terminal domain sequence aa20-42 of DOR (peptide)
peptide: SDTFPSAFPSASANASGSPGARS
notes: also called DpepDM(20-42); DpepDM

B4: SNAPf-KOR: rat KOR with the SNAPf tag protein at its N-terminus, expressed in the PM of CHO-K1 cells (Example 2) (receptor, not shown: small tags and cut ends)
chain: SGGGSGGSGGGSGGSGGGSGGMESPIQIFRGEPGPTCAPSACLLPNSSSWFPNWAESDSNGSVGSEDQQLEPAHISPAIPVIITAVYSVVFVVGLVGNSLVMFVIIRYTKMKTATNIYIFNLALADALVTTTMPFQSAVYLMNSWPFGDVLCKIVISIDYYNMFTSIFTLTMMSVDRYIAVCHPVKALDFRTPLKAKIINICIWLLASSVGISAIVLGGTKVREDVDVIECSLQFPDDEYSWWDLFMKICVFVFAFVIPVLIIIVCYTLMILRLKSVRLLSGSREKDRNLRRITKLVLVVVAVFIICWTPIHIFILVEALGSTSHSTAVLSSYYFCIALGYTNSSLNPVLYAFLDENFKRCFRDFCFPIKMRMERQSTNRVRNTVQDPASMRDVGGMNKPV
modifications: SNAPf tag covalently labelled with SNAP-Surface 549 or SNAP-CF660R
notes: whole, on cells; Homodimer partner is the same molecule labelled in the other colour; also called WT KOR
koff [9]: 17.9 s⁻¹
D/M ratio (protomers in dimers vs monomers) at 0.3 copies/µm^2 [2]: 0.19
D/M ratio (protomers in dimers vs monomers) at 1 copies/µm^2 [2]: 0.5
D/M ratio (protomers in dimers vs monomers) at 3 copies/µm^2 [2]: 1.08
D/M ratio (protomers in dimers vs monomers) at 10 copies/µm^2 [2]: 2.28
D/M ratio (protomers in dimers vs monomers) at 30 copies/µm^2 [2]: 4.26
D/M ratio (protomers in dimers vs monomers) at 0.3 copies/µm^2 [10]: 0.07
D/M ratio (protomers in dimers vs monomers) at 1 copies/µm^2 [10]: 0.22
D/M ratio (protomers in dimers vs monomers) at 3 copies/µm^2 [10]: 0.52
D/M ratio (protomers in dimers vs monomers) at 10 copies/µm^2 [10]: 1.2
D/M ratio (protomers in dimers vs monomers) at 30 copies/µm^2 [10]: 2.35
koff [3]: 6.71 s⁻¹
% of copies existing as dimers at ˜1 copy/µm^2, before agonist [5]: 33%
Ca^2+ (FMax-Fb)/Fb; + Agonist + FAM-pep-TAT [6]: 2.46 (FMax-Fb)/Fb

B5: SNAPf-DOR: rat DOR with the SNAPf tag protein at its N-terminus, expressed in the PM of CHO-K1 cells (Example 2) (receptor, not shown: small tags and cut ends)
chain: SGGGSGGSGGGSGGSGGGSGGMEPVPSARAELQFSLLANVSDTFPSAFPSASANASGSPGARSASSLALAIAITALYSAVCAVGLLGNVLVMFGIVRYTKLKTATNIYIFNLALADALATSTLPFQSAKYLMETWPFGELLCKAVLSIDYYNMFTSIFTLTMMSVDRYIAVCHPVKALDFRTPAKAKLINICIWVLASGVGVPIMVMAVTQPRDGAVVCTLQFPSPSWYWDTVTKICVFLFAFVVPILIITVCYGLMLLRLRSVRLLSGSKEKDRSLRRITRMVLVVVGAFVVCWAPIHIFVIVWTLVDINRRDPLVVAALHLCIALGYANSSLNPVLYAFLDENFKRCFRQLCRAPCGGQEPGSLRRPRQATARERVTACTPSDGPGGGAAA
modifications: SNAPf tag covalently labelled with SNAP-Surface 549 or SNAP-CF660R
notes: whole, on cells; Homodimer partner is the same molecule labelled in the other colour; also called WT DOR
D/M ratio (protomers in dimers vs monomers) at 0.3 copies/µm^2 [11]: 0.15
D/M ratio (protomers in dimers vs monomers) at 1 copies/µm^2 [11]: 0.4
D/M ratio (protomers in dimers vs monomers) at 3 copies/µm^2 [11]: 0.89
D/M ratio (protomers in dimers vs monomers) at 10 copies/µm^2 [11]: 1.92
D/M ratio (protomers in dimers vs monomers) at 30 copies/µm^2 [11]: 3.62
D/M ratio (protomers in dimers vs monomers) at 0.3 copies/µm^2 [2]: 0.07
D/M ratio (protomers in dimers vs monomers) at 1 copies/µm^2 [2]: 0.21
D/M ratio (protomers in dimers vs monomers) at 3 copies/µm^2 [2]: 0.5
D/M ratio (protomers in dimers vs monomers) at 10 copies/µm^2 [2]: 1.17
D/M ratio (protomers in dimers vs monomers) at 30 copies/µm^2 [2]: 2.3
koff [12]: 3.62 s⁻¹
koff [3]: 8 s⁻¹
% of copies existing as dimers at ˜1 copy/µm^2, before agonist [5]: 17%
fold of homodimer lifetime against wild-type DOR in the absence of the agonist [13]: ~1.5 fold
Ca^2+ (FMax-Fb)/Fb; + Agonist + FAM-pep-TAT [6]: 2.84 (FMax-Fb)/Fb
